Source: patent US20240116985A1 (published 2024)
Starred links: 1 amine or outer side, 2 acyl side, 3 side chain; linkers in the order of their positions; H or OH if unused. Positions of bridges follow the written chain, without caps; N, C: chain ends. Non-standard residues stand in square brackets, D forms with d. Primed or numbered codes have the meaning given here. PyrS = (S)-1-((allyloxy)carbonyl)-3-aminopyrrolidine-3-carboxylic acid, C=CCOC(=O)N1CC[C@@](N[*:1])(C(=O)[*:2])C1; B5(3) = 2,2-bis(4-pentenyl)glycine (stitching residue), C=CCCCC(CCCC=C)(N[*:1])C(=O)[*:2]; Phe(3-COOH) = N[C@@H](Cc1cccc(C(=O)O)c1)C(=O)O; 2F3MeF = Cc1cccc(C[C@H](N[*:1])C(=O)[*:2])c1F; Phe(4-F) = N[C@@H](Cc1ccc(F)cc1)C(=O)O; Bta = N[C@@H](Cc1csc2ccccc12)C(=O)O; Lys(iPr) = CC(C)NCCCC[C@H](N)C(=O)O; αAllylPro = C=CC[C@@]1(C(=O)O)CCCN1; tBuAla = CC(C)(C)C[C@H](N)C(=O)O; R8 = C=CCCCCCC[C@@](C)(N)C(=O)O; 3Thi = N[C@@H](Cc1ccsc1)C(=O)O; PyrS2(4) = not defined here

Legend:
[1] = target: T1, beta-catenin in DLD1 TCF/LEF luciferase reporter cells (UniProt P35222 2-781); assay: cell-based or functional assay
T1 sequence (looked up): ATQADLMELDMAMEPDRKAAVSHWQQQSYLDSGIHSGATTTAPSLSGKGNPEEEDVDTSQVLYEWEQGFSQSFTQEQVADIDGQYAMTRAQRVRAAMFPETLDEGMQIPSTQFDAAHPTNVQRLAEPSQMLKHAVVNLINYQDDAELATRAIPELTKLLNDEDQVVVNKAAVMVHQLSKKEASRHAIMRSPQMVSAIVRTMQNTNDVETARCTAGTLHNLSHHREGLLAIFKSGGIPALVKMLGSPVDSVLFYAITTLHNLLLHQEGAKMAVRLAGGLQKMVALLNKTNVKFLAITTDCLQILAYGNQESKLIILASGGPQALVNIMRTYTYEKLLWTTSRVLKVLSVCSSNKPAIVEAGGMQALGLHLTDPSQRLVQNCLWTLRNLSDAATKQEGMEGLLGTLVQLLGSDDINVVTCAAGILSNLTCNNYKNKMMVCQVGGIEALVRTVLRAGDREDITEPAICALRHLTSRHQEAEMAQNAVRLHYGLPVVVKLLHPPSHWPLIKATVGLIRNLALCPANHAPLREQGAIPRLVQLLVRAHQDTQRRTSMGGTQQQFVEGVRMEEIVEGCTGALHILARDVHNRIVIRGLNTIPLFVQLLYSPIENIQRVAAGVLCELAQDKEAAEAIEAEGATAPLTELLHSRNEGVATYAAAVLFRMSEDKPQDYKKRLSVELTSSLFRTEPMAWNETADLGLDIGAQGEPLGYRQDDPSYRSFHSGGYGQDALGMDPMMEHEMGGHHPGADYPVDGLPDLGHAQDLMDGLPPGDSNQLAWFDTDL

B-cat-Halo [2] = target: T2, B-cat-Halo (UniProt P35222 1-781); assay: cell-based or functional assay
T2 sequence (looked up): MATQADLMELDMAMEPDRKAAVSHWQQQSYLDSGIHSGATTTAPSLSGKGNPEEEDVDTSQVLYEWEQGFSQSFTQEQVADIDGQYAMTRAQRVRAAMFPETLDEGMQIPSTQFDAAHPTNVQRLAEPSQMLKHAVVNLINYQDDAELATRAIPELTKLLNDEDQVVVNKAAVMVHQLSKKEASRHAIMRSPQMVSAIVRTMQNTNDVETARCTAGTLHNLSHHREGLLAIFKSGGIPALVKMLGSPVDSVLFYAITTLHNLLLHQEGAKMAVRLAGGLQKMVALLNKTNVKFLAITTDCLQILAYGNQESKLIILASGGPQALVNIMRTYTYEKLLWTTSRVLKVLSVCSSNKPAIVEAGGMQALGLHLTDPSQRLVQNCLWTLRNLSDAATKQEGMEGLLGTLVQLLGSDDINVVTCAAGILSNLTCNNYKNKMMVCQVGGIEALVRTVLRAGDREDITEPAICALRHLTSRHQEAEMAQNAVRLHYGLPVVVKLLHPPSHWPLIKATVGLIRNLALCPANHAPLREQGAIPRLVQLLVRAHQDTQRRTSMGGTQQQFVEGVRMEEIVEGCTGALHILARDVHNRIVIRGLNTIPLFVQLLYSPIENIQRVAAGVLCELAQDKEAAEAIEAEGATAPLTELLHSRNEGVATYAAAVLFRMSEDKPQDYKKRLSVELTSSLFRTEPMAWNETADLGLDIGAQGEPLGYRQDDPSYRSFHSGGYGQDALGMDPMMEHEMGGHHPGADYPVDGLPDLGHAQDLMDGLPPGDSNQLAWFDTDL

[3] = target: T3, full-length beta-Catenin (Uniprot ID P35222) (Homo sapiens (Human), UniProt P35222 2-781); assay: fluorescence polarization competition; peptide titrated against 10 nM full-length beta-catenin with 10 nM 5FAM-TCF4(10-53) probe
T3 construct: also called bCat; B-Catenin
T3 sequence: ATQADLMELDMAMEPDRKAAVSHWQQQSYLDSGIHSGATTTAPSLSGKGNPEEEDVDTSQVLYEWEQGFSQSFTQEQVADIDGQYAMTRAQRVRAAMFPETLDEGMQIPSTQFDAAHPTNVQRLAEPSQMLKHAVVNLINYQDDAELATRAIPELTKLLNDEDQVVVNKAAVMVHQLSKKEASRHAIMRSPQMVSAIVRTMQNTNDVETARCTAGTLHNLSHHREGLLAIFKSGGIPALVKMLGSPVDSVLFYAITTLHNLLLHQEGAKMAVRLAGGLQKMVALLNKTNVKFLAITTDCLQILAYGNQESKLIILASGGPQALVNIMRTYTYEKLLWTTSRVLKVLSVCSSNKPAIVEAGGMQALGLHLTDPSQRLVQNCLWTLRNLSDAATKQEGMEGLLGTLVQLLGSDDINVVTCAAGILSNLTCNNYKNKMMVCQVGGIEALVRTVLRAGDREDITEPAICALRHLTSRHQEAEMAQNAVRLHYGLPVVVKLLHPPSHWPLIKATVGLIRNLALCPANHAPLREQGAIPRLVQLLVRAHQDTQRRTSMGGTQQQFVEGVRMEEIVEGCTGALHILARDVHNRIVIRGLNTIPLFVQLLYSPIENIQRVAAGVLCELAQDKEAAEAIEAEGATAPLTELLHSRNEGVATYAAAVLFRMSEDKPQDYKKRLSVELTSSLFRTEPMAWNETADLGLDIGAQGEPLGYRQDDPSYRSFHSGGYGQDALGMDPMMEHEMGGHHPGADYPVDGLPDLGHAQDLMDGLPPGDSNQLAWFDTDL
Procedure: The plate was incubated protected from light for 60 minutes at 20° C. prior to read. Reads were performed on a CLARIOstar plate reader (BMG Labtech) in duplicate, and data were fitted to a 1:1 binding model with hill slope using an in-house script. All provided concentrations are final concentrations.

[4] = target: T4, beta-catenin in DLD1 TCF/LEF luciferase reporter cells (Homo sapiens (Human), UniProt P35222 1-781); assay: cell-based or functional assay
T4 sequence: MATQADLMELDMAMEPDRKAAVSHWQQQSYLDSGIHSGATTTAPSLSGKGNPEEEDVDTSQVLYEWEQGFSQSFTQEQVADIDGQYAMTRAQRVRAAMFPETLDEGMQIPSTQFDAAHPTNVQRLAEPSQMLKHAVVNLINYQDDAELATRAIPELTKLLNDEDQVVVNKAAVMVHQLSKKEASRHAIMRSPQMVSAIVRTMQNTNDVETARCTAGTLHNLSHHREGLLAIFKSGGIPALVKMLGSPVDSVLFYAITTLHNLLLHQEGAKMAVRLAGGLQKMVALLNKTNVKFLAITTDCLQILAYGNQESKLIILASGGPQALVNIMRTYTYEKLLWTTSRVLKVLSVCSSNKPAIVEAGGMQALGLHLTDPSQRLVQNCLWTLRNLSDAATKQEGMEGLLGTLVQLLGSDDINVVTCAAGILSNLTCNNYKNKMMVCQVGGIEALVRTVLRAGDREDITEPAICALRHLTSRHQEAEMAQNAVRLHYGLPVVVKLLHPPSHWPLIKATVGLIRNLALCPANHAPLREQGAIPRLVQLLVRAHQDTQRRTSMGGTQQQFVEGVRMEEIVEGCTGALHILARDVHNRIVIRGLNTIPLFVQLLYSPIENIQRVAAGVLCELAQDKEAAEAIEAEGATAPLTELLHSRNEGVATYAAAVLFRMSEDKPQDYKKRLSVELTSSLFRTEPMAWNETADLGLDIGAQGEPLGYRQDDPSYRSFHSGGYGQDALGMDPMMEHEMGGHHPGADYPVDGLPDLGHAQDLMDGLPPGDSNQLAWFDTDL

B-cat-Halo [5] = target: T5, B-cat-Halo (Homo sapiens (Human), UniProt P35222 1-781); assay: cell-based or functional assay
T5 sequence: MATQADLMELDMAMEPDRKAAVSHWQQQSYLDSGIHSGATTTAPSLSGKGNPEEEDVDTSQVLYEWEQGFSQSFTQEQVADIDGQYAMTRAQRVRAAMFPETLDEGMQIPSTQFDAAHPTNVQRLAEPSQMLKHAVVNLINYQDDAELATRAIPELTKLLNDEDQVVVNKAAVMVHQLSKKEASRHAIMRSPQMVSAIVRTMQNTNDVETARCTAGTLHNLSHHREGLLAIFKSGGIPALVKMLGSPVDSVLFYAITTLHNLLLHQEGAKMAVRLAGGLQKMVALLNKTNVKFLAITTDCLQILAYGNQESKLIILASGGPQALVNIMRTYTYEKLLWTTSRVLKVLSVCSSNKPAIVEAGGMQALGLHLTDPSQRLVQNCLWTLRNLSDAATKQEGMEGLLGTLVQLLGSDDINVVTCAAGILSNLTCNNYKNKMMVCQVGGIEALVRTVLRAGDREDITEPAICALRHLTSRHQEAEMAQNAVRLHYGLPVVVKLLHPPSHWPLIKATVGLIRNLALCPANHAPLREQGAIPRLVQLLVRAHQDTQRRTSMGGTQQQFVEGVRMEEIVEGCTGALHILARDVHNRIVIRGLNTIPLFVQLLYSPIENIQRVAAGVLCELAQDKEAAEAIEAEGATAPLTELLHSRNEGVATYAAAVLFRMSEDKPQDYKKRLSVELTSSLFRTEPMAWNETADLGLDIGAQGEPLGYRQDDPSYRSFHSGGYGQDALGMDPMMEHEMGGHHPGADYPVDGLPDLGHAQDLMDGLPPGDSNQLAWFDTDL

B1: I-1616 (peptide)
peptide: Ac-[αAllylPro]D[tBuAla][B5(3)]D[Phe(3-COOH)]AAFL[PyrS2(4)][2F3MeF][Bta][Lys(iPr)]-NH2
modifications: staple 1-4, 4-11; not fully specified; printed as Ac-PL3-Asp-Npg-B5-Asp-3COOHF-Ala-Ala-Phe-Leu-PyrS2-2F3MeF-BztA-iPrLys-NH2; reading uncertain
DLD1 4% Abs IC50 [1]: 2800 nM
NanoBRET Abs IC50 (B-cat-Halo [2]): 4500 nM

B2: I-78: Ac-Phe-Asp-Ala-R8-Asp-Asp-Ala-Ala-4FF-Val-PyrS-Phe-Trp-Gln-NH2 (stapled peptide) (peptide)
peptide: Ac-FDA[R8]DDAA[Phe(4-F)]V[PyrS]FWQ-NH2
modifications: staple 4-11
IC50 [3]: 5000 nM

B3: I-2047 (peptide)
peptide: Ac-[αAllylPro]D[tBuAla][B5(3)]D[Phe(3-COOH)]AAFL[PyrS2(4)][3Thi][Bta]NAA[dA]-NH2
modifications: staple 1-4, 4-11; reading uncertain
DLD1 4% Abs IC50 [4]: 1300 nM
NanoBRET Abs IC50 (B-cat-Halo [5]): 2600 nM
